The kcat/KM is the second-order rate constant that governs catalysis at low substrate concentration. Broadly, the KM is the substrate concentration at which the rate is half of its maximum.

We go through 13 proteins from patent US11491212.

This data set concerns the target Factor X, P00742.

Chain of Factor X, P00742 (P00742 whole entry, looked up): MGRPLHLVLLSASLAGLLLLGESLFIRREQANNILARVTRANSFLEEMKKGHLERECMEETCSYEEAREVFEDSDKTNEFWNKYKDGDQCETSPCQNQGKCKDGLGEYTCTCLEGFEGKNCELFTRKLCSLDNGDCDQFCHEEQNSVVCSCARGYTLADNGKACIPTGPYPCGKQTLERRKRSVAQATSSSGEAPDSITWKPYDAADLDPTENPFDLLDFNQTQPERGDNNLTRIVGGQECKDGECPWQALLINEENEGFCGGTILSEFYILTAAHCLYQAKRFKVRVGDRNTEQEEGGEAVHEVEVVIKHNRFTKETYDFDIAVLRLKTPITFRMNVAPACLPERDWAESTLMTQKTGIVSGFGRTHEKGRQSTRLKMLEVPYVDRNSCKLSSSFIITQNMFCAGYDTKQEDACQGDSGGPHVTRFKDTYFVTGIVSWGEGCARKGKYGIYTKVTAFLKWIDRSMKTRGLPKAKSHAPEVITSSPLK

B1: FIXa K247N/N249S/R318Y/T343R/E410N (protein)
chain 1: not shown
chain 2: not shown
As to B1, the “% of WT kcat/KM” value was found to be 439% and the kcat/KM came out at 2e+08 M⁻¹ s⁻¹.

B2: FIXa Y155F/K247N/N249S/T343R/R403E/E410N (protein)
chain 1: not shown
chain 2: not shown
For the protein B2, the “% of WT kcat/KM” value is reported as 635% and the kcat/KM turned out to be 2.9e+08 M⁻¹ s⁻¹.

B3: FIXa R338E/T343R/E410N (protein)
chain 1: not shown
chain 2: not shown
As for B3, the “% of WT kcat/KM” value came out at 201% and the specificity constant (kcat/KM) was found to be 9.3e+07 M⁻¹ s⁻¹.

B4: FIXa-K228N/K247N/N249S/R318Y/R338E/T343R/R403E/E410N (protein)
chain 1: not shown
chain 2: not shown
On to B4, for which the Michaelis constant (KM) is 0.0251 µM and the kcat/KM was 4.1e+08 M⁻¹ s⁻¹.

B5: FIXa K247N/N249S/R338E/T343R/E410N (protein)
chain 1: not shown
chain 2: not shown
Consider B5, for which the “% of WT kcat/KM” value came to 676% and the specificity constant (kcat/KM) came out at 3.1e+08 M⁻¹ s⁻¹.

B6: FIXa Y155F/K247N/N249S/R318Y/T343R/R403E (protein)
chain 1: not shown
chain 2: not shown
As to B6, the “% of WT kcat/KM” value is 276% and the kcat/KM came to 1.3e+08 M⁻¹ s⁻¹.

B7: FIXa K247N/N249S/R338E/T343R/R403E (protein)
chain 1: not shown
chain 2: not shown
Take B7: the “% of WT kcat/KM” value is recorded as 1215% and the specificity constant (kcat/KM) came out at 5.6e+08 M⁻¹ s⁻¹.

B8: FIXa-Y155F/N260S/R318Y/R338E/T343R/R403E/E410N (protein)
chain 1: not shown
chain 2: not shown
With B8, the KM was 0.0402 µM and the kcat/KM stood at 1.5e+08 M⁻¹ s⁻¹.

B9: FIXa-Y155F/K228N/K247N/N249S/R318Y/R338E/T343R/R403E/E410N (protein)
chain 1: not shown
chain 2: not shown
Consider B9, for which the KM came to 0.0368 µM and the kcat/KM worked out at 3e+08 M⁻¹ s⁻¹.

B10: FIXa Y155F/K247N/N249S/R338E/T343R/E410N (protein)
chain 1: not shown
chain 2: not shown
For the protein B10, the “% of WT kcat/KM” value was 391% and the kcat/KM was determined as 1.8e+08 M⁻¹ s⁻¹.

B11: FIXa Y155F/K247N/N249S/R318Y/T343R/E410N (protein)
chain 1: not shown
chain 2: not shown
For B11, the “% of WT kcat/KM” value was determined as 668% and the kcat/KM was determined as 3.1e+08 M⁻¹ s⁻¹.

B12: FIXa Y155F/K247N/N249S/R338E/T343R/R403E (protein)
chain 1: not shown
chain 2: not shown
Take B12: the “% of WT kcat/KM” value came out at 1269% and the kcat/KM was found to be 5.9e+08 M⁻¹ s⁻¹.

B13: FIXa K247N/N249S/R318Y/T343R/R403E (protein)
chain 1: not shown
chain 2: not shown
As to B13, the “% of WT kcat/KM” value is recorded as 84% and the catalytic efficiency (kcat/KM) is 3.9e+07 M⁻¹ s⁻¹.
